In US20230235072A1 (DENALI THERAPEUTICS, published 2023):

Tests used:
[1] = molecular target: T1, human transferrin receptor (TfR) ectodomain (ECD) (human, UniProt P02786 121-760, biotinylated where captured on streptavidin); test: phage ELISA, phage dilution series on plate-coated human TfR without and with holo-Tf; OD650
T1 construct: also called human TfR; huTfR
Target sequence in this assay (P02786 121-760): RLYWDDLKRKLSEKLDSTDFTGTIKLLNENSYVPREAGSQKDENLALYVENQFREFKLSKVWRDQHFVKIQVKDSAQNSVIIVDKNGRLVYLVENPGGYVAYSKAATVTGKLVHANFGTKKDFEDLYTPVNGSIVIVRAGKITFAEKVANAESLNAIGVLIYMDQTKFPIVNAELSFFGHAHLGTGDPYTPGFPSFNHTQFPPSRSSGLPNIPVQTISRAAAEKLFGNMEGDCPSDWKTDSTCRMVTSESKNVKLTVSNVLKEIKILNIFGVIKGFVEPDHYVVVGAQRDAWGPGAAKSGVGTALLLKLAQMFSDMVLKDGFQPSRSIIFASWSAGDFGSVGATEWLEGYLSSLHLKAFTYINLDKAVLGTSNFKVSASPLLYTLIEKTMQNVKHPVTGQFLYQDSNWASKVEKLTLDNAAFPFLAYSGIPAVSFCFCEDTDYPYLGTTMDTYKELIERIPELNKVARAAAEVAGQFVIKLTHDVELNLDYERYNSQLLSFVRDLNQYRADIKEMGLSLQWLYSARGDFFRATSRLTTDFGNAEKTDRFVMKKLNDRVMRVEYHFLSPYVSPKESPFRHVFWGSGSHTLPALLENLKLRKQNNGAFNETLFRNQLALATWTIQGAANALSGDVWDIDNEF

[2] = molecular target: T1, human transferrin receptor (TfR) …; test: SPR (Biacore), same protocol as previously described; form of human TfR not stated
Target sequence in this assay (P02786 121-760): as above

CH3C.18 Fc-Fab fusion = molecular target: T2, CH3C.18 Fc-Fab fusion (Homo sapiens (Human), UniProt P0DOX5 230-449 = IgG part); test: phage ELISA: phage-displayed human TfR apical domain, dilution series on plate-coated CH3C.18; OD650
T2 construct: bivalent for TfR; also called CH3C.18.1.18
T2 Fc: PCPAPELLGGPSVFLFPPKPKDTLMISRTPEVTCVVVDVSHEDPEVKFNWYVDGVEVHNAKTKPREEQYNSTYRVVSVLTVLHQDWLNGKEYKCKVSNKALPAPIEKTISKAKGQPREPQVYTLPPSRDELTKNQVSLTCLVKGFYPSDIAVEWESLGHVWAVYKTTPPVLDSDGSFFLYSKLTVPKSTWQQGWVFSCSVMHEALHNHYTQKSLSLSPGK
Experimental: (§1) The plates were subsequently washed and anti-M13-HRP was added, and after additional washing the plates were developed with TMB substrate and quenched with 2N […].

[3] = molecular target: T3, CH3C.35 Fc-Fab fusion (bivalent) (Homo sapiens (Human), UniProt P0DOX5 230-449 = IgG part); test: phage ELISA: phage-displayed human TfR apical domain, dilution series on plate-coated CH3C.35; OD650
T3 construct: bivalent for TfR; also called CH3C.35.bi; CHC3.35
T3 Fc: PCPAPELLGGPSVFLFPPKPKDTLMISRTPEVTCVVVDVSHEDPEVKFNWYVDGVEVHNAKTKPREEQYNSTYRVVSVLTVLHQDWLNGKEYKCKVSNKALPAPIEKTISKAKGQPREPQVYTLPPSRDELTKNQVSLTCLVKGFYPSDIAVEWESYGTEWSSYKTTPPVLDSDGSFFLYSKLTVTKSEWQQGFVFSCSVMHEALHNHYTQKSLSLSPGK
Experimental: as §1

[4] = molecular target: T3, CH3C.35 Fc-Fab fusion (bivalent); test: phage ELISA: phage-displayed TfR apical domain, dilution series on plate-coated CH3C.35; OD650
Experimental: as §1

[5] = molecular target: T4, cynomolgus transferrin receptor (TfR) ectodomain (ECD) (cynomolgus, UniProt Q5RDH6 121-760 (Pongo abelii entry), biotinylated where captured on streptavidin); test: ELISA, Fc-Fab fusion titrated on plate-coated cyno TfR; OD650
T4 construct: also called cyno TfR; cynoTfR
T4 chain: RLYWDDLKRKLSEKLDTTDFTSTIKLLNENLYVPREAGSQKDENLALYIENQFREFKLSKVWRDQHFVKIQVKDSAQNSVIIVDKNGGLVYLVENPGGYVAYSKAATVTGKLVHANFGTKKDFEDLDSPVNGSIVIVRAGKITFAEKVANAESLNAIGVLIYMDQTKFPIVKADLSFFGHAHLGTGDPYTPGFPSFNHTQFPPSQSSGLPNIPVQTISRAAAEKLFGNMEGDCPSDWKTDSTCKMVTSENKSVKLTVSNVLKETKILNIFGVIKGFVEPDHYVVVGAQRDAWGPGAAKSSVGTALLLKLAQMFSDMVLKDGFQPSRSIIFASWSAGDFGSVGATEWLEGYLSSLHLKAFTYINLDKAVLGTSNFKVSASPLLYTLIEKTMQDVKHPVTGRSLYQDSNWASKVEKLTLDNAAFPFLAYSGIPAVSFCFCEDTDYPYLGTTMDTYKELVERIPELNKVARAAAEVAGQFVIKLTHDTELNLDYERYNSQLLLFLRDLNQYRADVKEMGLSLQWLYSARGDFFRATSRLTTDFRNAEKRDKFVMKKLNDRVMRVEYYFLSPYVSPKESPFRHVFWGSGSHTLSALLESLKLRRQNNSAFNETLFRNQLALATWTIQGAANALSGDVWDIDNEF
From the text: (§2) The CH2C variants were expressed as Fc fusions to Fab fragments by cloning into an expression vector containing an anti-BACE1 benchmark variable region sequence.

[6] = molecular target: T1, human transferrin receptor (TfR) …; test: ELISA, Fc-Fab fusion titrated on plate-coated human TfR; OD650
From the text: as §2

streptavidin = streptavidin (Natural streptavidin is a homotetramer; one chain is given.); test: phage ELISA, phage dilution series on plate-coated streptavidin; OD650
[7] = molecular target: T1, human transferrin receptor (TfR) …; test: phage ELISA, phage dilution series on plate-coated human TfR without and with holo-Tf; OD650; remark: listed apart in the source
From the text: as §2
Target sequence in this assay (P02786 121-760): as the sequence (P02786 121-760) above

B1: Clone CH3B.11 (designed binder)
chain: PCPAPELLGGPSVFLFPPKPKDTLMISRTPEVTCVVVDVSHEDPEVKFNWYVDGVEVHNAKTKPREEQYNSTYRVVSVLTVLHQDWLNGKEYKCKVSNKALPAPIEKTISKAKGQPRFGLVTTLPPSRDELTKNQVSLTCLVKGFYPSDIAVEWESNGQPENNYKTTPPVLDSDGSFFLYSKLTVDKSRWQQGNVFSCSVMHEALHNHYGFHDLSLSPGK
**Q.** Does B1 bind [1]?
**A.** binds

B2: Clone CH3B.12 (designed binder)
chain: PCPAPELLGGPSVFLFPPKPKDTLMISRTPEVTCVVVDVSHEDPEVKFNWYVDGVEVHNAKTKPREEQYNSTYRVVSVLTVLHQDWLNGKEYKCKVSNKALPAPIEKTISKAKGQPRFDYVTTLPPSRDELTKNQVSLTCLVKGFYPSDIAVEWESNGQPENNYKTTPPVLDSDGSFFLYSKLTVDKSRWQQGNVFSCSVMHEALHNHYGFSDLSLSPGK
**Q.** Does B2 bind [1]?
**A.** binds

B3: Clone CH3C.35.N390.1 (designed binder)
chain: PCPAPELLGGPSVFLFPPKPKDTLMISRTPEVTCVVVDVSHEDPEVKFNWYVDGVEVHNAKTKPREEQYNSTYRVVSVLTVLHQDWLNGKEYKCKVSNKALPAPIEKTISKAKGQPREPQVYTLPPSRDELTKNQVSLTCLVKGFYPSDIAVEWESYGTEWSNYKTTPPVLDSDGSFFLYSKLTVSKSEWQQGFVFSCSVMHEALHNHYTQKSLSLSPGK
**Q.** For B3, which Kd [2] is on record?
**A.** 2000 nM

B4: Clone CH3C.35.23.1.1 (designed binder)
chain: PCPAPELLGGPSVFLFPPKPKDTLMISRTPEVTCVVVDVSHEDPEVKFNWYVDGVEVHNAKTKPREEQYNSTYRVVSVLTVLHQDWLNGKEYKCKVSNKALPAPIEKTISKAKGQPREPQVYTLPPSRDELTKNQVSLTCLVKGFYPSDIAVEWESFGTEWSNYKTTPPVLDSDGSFFLYSKLTVSKEEWQQGFVFSCSVMHEALHNHYTQKSLSLSPGK
**Q.** Which Kd [2] does the source give for B4 here?
**A.** 750 nM

B5: Clone CH3C.35.S413 (designed binder)
chain: PCPAPELLGGPSVFLFPPKPKDTLMISRTPEVTCVVVDVSHEDPEVKFNWYVDGVEVHNAKTKPREEQYNSTYRVVSVLTVLHQDWLNGKEYKCKVSNKALPAPIEKTISKAKGQPREPQVYTLPPSRDELTKNQVSLTCLVKGFYPSDIAVEWESYGTEWSSYKTTPPVLDSDGSFFLYSKLTVSKSEWQQGFVFSCSVMHEALHNHYTQKSLSLSPGK
**Q.** Which Kd [2] does the source give for B5 here?
**A.** 1700 nM

B6: Clone CH3C.35.23.6.1 (designed binder)
chain: PCPAPELLGGPSVFLFPPKPKDTLMISRTPEVTCVVVDVSHEDPEVKFNWYVDGVEVHNAKTKPREEQYNSTYRVVSVLTVLHQDWLNGKEYKCKVSNKALPAPIEKTISKAKGQPREPQVYTLPPSRDELTKNQVSLTCLVKGFYPSDIAVEWESFGTEWVNYKTTPPVLDSDGSFFLYSKLTVSKEEWQQGFVFSCSVMHEALHNHYTQKSLSLSPGK
**Q.** How did the Kd [2] turn out when B6 was run?
**A.** 2100 nM

B7: Clone CH3C.35.23.3.1 (designed binder)
chain: PCPAPELLGGPSVFLFPPKPKDTLMISRTPEVTCVVVDVSHEDPEVKFNWYVDGVEVHNAKTKPREEQYNSTYRVVSVLTVLHQDWLNGKEYKCKVSNKALPAPIEKTISKAKGQPREPQVYTLPPSRDELTKNQVSLTCLVKGFYPSDIAVEWESYGTEWVNYKTTPPVLDSDGSFFLYSKLTVSKEEWQQGFVFSCSVMHEALHNHYTQKSLSLSPGK
**Q.** B7 was tested. Which Kd [2] did it give?
**A.** 1900 nM

B8: Clone CH3C.35.23.2.1 (designed binder)
chain: PCPAPELLGGPSVFLFPPKPKDTLMISRTPEVTCVVVDVSHEDPEVKFNWYVDGVEVHNAKTKPREEQYNSTYRVVSVLTVLHQDWLNGKEYKCKVSNKALPAPIEKTISKAKGQPREPQVYTLPPSRDELTKNQVSLTCLVKGFYPSDIAVEWESYGTEWANYKTTPPVLDSDGSFFLYSKLTVSKSEWQQGFVFSCSVMHEALHNHYTQKSLSLSPGK
**Q.** B8 was tested. Which Kd [2] did it give?
**A.** 690 nM

B9: Clone CH3C.35.20.1.1 (designed binder)
chain: PCPAPELLGGPSVFLFPPKPKDTLMISRTPEVTCVVVDVSHEDPEVKFNWYVDGVEVHNAKTKPREEQYNSTYRVVSVLTVLHQDWLNGKEYKCKVSNKALPAPIEKTISKAKGQPREPQVYTLPPSRDELTKNQVSLTCLVKGFYPSDIAVEWESFGTEWSSYKTTPPVLDSDGSFFLYSKLTVSKEEWQQGFVFSCSVMHEALHNHYTQKSLSLSPGK
**Q.** With B9 as the binder, how does the Kd [2] read?
**A.** 620 nM

B10: loop-truncated human TfR apical domain displayed on phage (receptor)
chain: SSGLPNIPVQTISRAAAEKLFGNMEGDCPSDWKTDSTCRMVTSESKNVKLTVSNDSAQNSVIIVDKNGRLVYLVENPGGYVAYSKAATVTGKLVHANFGTKKDFEDLYTPVNGSIVIVRAGKITFAEKVANAESLNAIGVLIYMDQTKFPIVNAELSGP
notes: fused to phage coat, Myc-tagged; also called human TfR apical domain (phage)
**Q.** Which results are given for B10?
**A.** binding result (CH3C.18 Fc-Fab fusion): binds; binding result [3]: binds

B11: loop-truncated cynomolgus TfR apical domain displayed on phage (receptor)
chain: SSGLPNIPVQTISRAAAEKLFGNMEGDCPSDWKTDSTCKMVTSENKSVKLTVSNDSAQNSVIIVDKNGGLVYLVENPGGYVAYSKAATVTGKLVHANFGTKKDFEDLDSPVNGSIVIVRAGKITFAEKVANAESLNAIGVLIYMDQTKFPIVKADLSGP
notes: fused to phage coat, Myc-tagged; also called cyno apical domain (phage)
**Q.** Does B11 bind [4]?
**A.** binds

B12: Clone CH2C.8 (designed binder)
chain: PCPAPELLGGPSVFLFPPKPKDTLMISRTPEVTCVVVDPAFPPWEVKFNWYVDGVEVHNAKTKPREEEYYQNYRVVSVLTVLHQDWLNGKEYKCKVSNKALPAPIEKTISKAKGQPREPQVYTLPPSRDELTKNQVSLTCLVKGFYPSDIAVEWESNGQPENNYKTTPPVLDSDGSFFLYSKLTVDKSRWQQGNVFSCSVMHEALHNHYTQKSLSLSPGK
**Q.** Which results are given for B12?
**A.** binding result [5]: binds; binding result [6]: no binding (tested: 1000 nM)

B13: Clone CH2C.17 (designed binder)
chain: PCPAPELLGGPSVFLFPPKPKDTLMISRTPEVTCVVVDMLWPVPEVKFNWYVDGVEVHNAKTKPREEVYHRPYRVVSVLTVLHQDWLNGKEYKCKVSNKALPAPIEKTISKAKGQPREPQVYTLPPSRDELTKNQVSLTCLVKGFYPSDIAVEWESNGQPENNYKTTPPVLDSDGSFFLYSKLTVDKSRWQQGNVFSCSVMHEALHNHYTQKSLSLSPGK
notes: modified Fc; found by yeast display, tested on phage with holo-Tf
**Q.** What does the source list for B13?
**A.** binding result (streptavidin): no binding (tested: dilution 1 (least diluted phage)); binding result [7]: binds

B14: Clone CH2C.22 (designed binder)
chain: PCPAPELLGGPSVFLFPPKPKDTLMISRTPEVTCVVVDDDLTFQEVKFNWYVDGVEVHNAKTKPREELYVTPYRVVSVLTVLHQDWLNGKEYKCKVSNKALPAPIEKTISKAKGQPREPQVYTLPPSRDELTKNQVSLTCLVKGFYPSDIAVEWESNGQPENNYKTTPPVLDSDGSFFLYSKLTVDKSRWQQGNVFSCSVMHEALHNHYTQKSLSLSPGK
notes: as for B13
**Q.** What does the source list for B14?
**A.** binding result (streptavidin): no binding (tested: dilution 1 (least diluted phage)); binding result [7]: binds
